What was measured:
Conditions in all cases: tags: amine-coupled to CM5 chip in SPR; soluble in cell assays; chain copies: 2
[1] = target: T1, NGF (nerve growth factor) (human, UniProt P01138 P01138:122-241); experiment: cell_activity; neurite outgrowth, NGF 0.38 nM; SPR binding; TF-1 IC50 0.072 nM
Procedure: (§1) The neurite outgrowth inhibitory activity of the aptamer obtained in Example 1 was evaluated by using Neuroscreen-1 cell, which is a subclone of PC-12 cells.
(§2) The cells (2500 cells per well) were cultured for one day in an RPMI-1640 medium containing 2.5% horse serum and 1.25% fetal bovine serum in a 96 well flat-bottom plate coated with collagen type IV. […] Two days later, the cytoplasm and nuclei were stained using Cellomics Neurite Outgrowth Kit (manufactured by Thermo Scientific), and neurite length per cell was measured by Cellomics ArrayScan VTI (manufactured by Thermo Scientific). With the neurite length per cell obtained by the addition of NGF alone as inhibitory activity 0%, and that of the cell obtained by NGF free culture for 2 days as inhibitory activity 100%, the inhibitory activity of the aptamer was calculated from the neurite length per cell obtained by culturing with the addition of NGF and the aptamer in mixture. When the inhibitory activity was 0% or below, ‘0%’ is indicated.

[2] = target: T1, NGF (nerve growth factor); experiment: cell_activity; neurite outgrowth, NGF 0.38 nM; SPR binding; TF-1 IC50 0.101 nM
Procedure: as §1, §2

[3] = target: T1, NGF (nerve growth factor); experiment: cell_activity; neurite outgrowth, NGF 0.38 nM; SPR binding; TF-1 IC50 0.120 nM
Procedure: as §1, §2

[4] = target: T1, NGF (nerve growth factor); experiment: cell_activity; neurite outgrowth, NGF 0.38 nM; SPR binding; TF-1 IC50 0.119 nM
Procedure: as §1, §2

[5] = target: T1, NGF (nerve growth factor); experiment: cell_activity; neurite outgrowth, NGF 0.38 nM; not tested by SPR; TF-1 IC50 0.051 nM
Procedure: as §1, §2

[6] = target: T1, NGF (nerve growth factor); experiment: cell_activity; neurite outgrowth, NGF 0.38 nM; not tested by SPR; TF-1 IC50 0.520 nM
Procedure: as §1, §2

[7] = target: T1, NGF (nerve growth factor); experiment: cell_activity; neurite outgrowth, NGF 1.1 nM; SPR binding; blocks NGF-TrkA; TF-1 IC50 20.4 nM
Procedure: as §1, §2

[8] = target: T1, NGF (nerve growth factor); experiment: cell_activity; neurite outgrowth, NGF 1.1 nM; SPR binding; TF-1 IC50 11.1 nM
[9] = target: T1, NGF (nerve growth factor); experiment: cell_activity; neurite outgrowth, NGF 1.1 nM; SPR binding; TF-1 IC50 3.2 nM
[10] = target: T1, NGF (nerve growth factor); experiment: cell_activity; neurite outgrowth, NGF 1.1 nM; SPR binding; TF-1 IC50 1.0 nM
[11] = target: T1, NGF (nerve growth factor); experiment: cell_activity; neurite outgrowth, NGF 1.1 nM; SPR binding; TF-1 IC50 5.7 nM
Procedure: as §1, §2

[12] = target: T1, NGF (nerve growth factor); experiment: cell_activity; neurite outgrowth, NGF 1.1 nM; SPR binding; TF-1 IC50 3.2 nM; remark: listed apart in the source
Procedure: as §1, §2

[13] = target: T1, NGF (nerve growth factor); experiment: cell_activity; neurite outgrowth, NGF 1.1 nM; SPR binding; TF-1 IC50 1.4 nM
Procedure: as §1, §2

[14] = target: T1, NGF (nerve growth factor); experiment: cell_activity; neurite outgrowth, NGF 0.38 nM; SPR binding; TF-1 IC50 1.0 nM
Procedure: as §1, §2

[15] = target: T1, NGF (nerve growth factor); experiment: cell_activity; neurite outgrowth, NGF 0.38 nM; SPR binding; TF-1 IC50 0.154 nM
Procedure: as §1, §2

T1 sequence (P01138 122-241, one chain of several): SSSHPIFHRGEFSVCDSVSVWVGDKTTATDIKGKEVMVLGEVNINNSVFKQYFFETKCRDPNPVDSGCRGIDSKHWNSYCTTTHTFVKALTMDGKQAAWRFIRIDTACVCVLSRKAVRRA

B1: aptamer ID 26(52) (ssRNA)
RNA: GGGAGACUCGCCAGAGUUGAAAGAAACCCAAAUAAGUGUGCGCAC
modifications: 2'-F pyrimidines except 2'-OMe at 7,8,9,11,12,17,18,33,37,39,45; 2'-OMe purines except 2'-OH at 3,19,20,26; 5' idT and 3' idT
IC50 [1]: 0.101 nM

B2: aptamer ID 26(59) (ssRNA)
RNA: GGGAGACUCGCCAGAGUUGAAAGAAACCCAAAUAAGUGUGCGCAC
modifications: 2'-F pyrimidines except 2'-OMe at 7,8,9,11,12,17,18,33,37,45; 2'-OMe purines except 2'-F at g3 and 2'-OH at 19,20,26; 5' idT and 3' idT
IC50 [2]: 0.17 nM

B3: aptamer ID 26(62) (ssRNA)
RNA: GGGAGACUCGCCAGAGUUGAAAGAAACCCAAAUAAGUGUGCGCAC
modifications: 2'-F pyrimidines except 2'-OMe at 7,8,9,11,12,17,18,33,37,45; 2'-OMe purines except 2'-OH at 3,19,20 and LNA at a26; 5' idT and 3' idT
IC50 [3]: 0.228 nM

B4: aptamer ID 26(63) (mixed)
RNA: GGGAGACUCGCCAGAGUUGAAAGAAACCCAAAUAAGUGUGCGCAC
modifications: 2'-F pyrimidines except 2'-OMe at 7,8,9,11,12,17,18,33,37,39,45 and dC at 27,29; 2'-OMe purines except 2'-OH at 3,19,20,26; 5' idT and 3' idT
IC50 [4]: 0.139 nM

B5: aptamer ID 26(64) (ssRNA)
RNA: GGGAGACUCGCCAGAGUUGAAAGAAACCCAAAUAAGUGUGCGCAC
modifications: 2'-F pyrimidines except 2'-OMe at 7,8,9,11,12,17,18,33,37,39,45; 2'-OMe purines except 2'-OH at 3,19,20,26; 5' PEG80TS4 (ssH linker); 3' idT
IC50 [5]: 0.102 nM

B6: aptamer ID 26(66) (ssRNA)
RNA: GGGAGACUCGCCAGAGUUGAAAGAAACCCAAAUAAGUGUGCGCAC
modifications: 2'-F pyrimidines; 2'-OMe purines except 2'-OH at 3,19,20,26; 5' PEG40GS2 (ssH linker); 3' idT
IC50 [6]: 0.252 nM

B7: aptamer ID 1 (ssRNA)
RNA: GGGAGAACUUCGACCAGAAGUUUGAAAGAAACCCAAAUUAAAGUGAACAGUAUGUGCGCAUACA
modifications: 2'-F at all pyrimidines
IC50 [7]: 2.1 nM

B8: aptamer ID 10 (ssRNA)
RNA: GGGAGAACUUCGCCAGAAGUUUGAAAGAAACCCAAAUUAAAAAGUAUGUGCGCAUACA
modifications: 2'-F at all pyrimidines
IC50 [8]: < 3 nM

B9: aptamer ID 19 (ssRNA)
RNA: GGGAGAACUUCGCCAGAAGUUUGAAAGAAACCCAAAUAAAGAUGUGCGCAUC
modifications: 2'-F at all pyrimidines
IC50 [9]: 1.3 nM

B10: aptamer ID 21 (ssRNA)
RNA: GGGAGAACUUCGCCAGAAGUUUGAAAGAAACCCAAAUAAAGAGUGCGCUCA
modifications: 2'-F at all pyrimidines
IC50 [10]: 1.1 nM

GGGAGACUCGCCAGAGUUGAAAGAAACCCAAAUAAAGAUGUGCGCAUCA (ssRNA, 2'-F at all pyrimidines) [aptamer ID 22]
IC50 [11]: 1.3 nM

GGGAGACUCGCAGAGUUGAAAGAAACCCAAAUAAAGUGUGCGCACA (ssRNA, 2'-F at all pyrimidines) [aptamer ID 27]
IC50 [12]: < 1 nM

GGGAGACUCGCAGAGUUGAAAGAAACCCAAAUAAGUGUGCGCAC (ssRNA, 2'-F at all pyrimidines) [aptamer ID 28]
IC50 [13]: < 1 nM

GGGAGACUCGCCAGAGUUGAAAGAAACCCAAAUAGUGUGCGCAC (ssRNA, 2'-F at all pyrimidines) [aptamer ID 29]
IC50 [14]: < 0.3 nM

GGGAGACUCGCCAGAGUUGAAAGAAACCCAAAUAGUGUGCGCAC (ssRNA, 2'-F pyrimidines; 2'-OMe purines except 2'-OH at 3,19,20; 5' idT and 3' idT) [aptamer ID 29(1)]
IC50 [15]: 0.058 nM
